Data: the supplement of paper PMC7125110
± gives the standard error. This sample holds only a part of the variants without activity.

B1: glmS ribozyme (parent)
chain: AUAAAAGCGCCAGAACUACAGAAAUGUAGUUGACGAGGAGGAGGUUUAUCGAAUUUUCGGCGGAUGCCUCCAAA

Variants of: B1
Experiment: self-cleavage kobs at 10000 uM GlcN6P; higher = faster cleavage; RNA array
Settings: with glucosamine-6-phosphate
How it was run: (§1)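 Barcoded ribozyme variants, transcribed in situ by E. coli RNA polymerase on sequenced MiSeq chips, were followed via a hybridised Cy3 probe at 37 °C. Glucosamine-6-phosphate ranged from 40 μM to 10 mM in HEPES/KCl/Mg(OAc)2 buffer. kobs came from decay fits to per-tile medians, and kcat and KM from weighted Michaelis–Menten fits.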

Compared with G41C U56A G59C, G35A G43C C67G C68G is higher in “self-cleavage kobs at 10000 uM GlcN6P” value: less than 1e-05 s⁻¹ for the first, 6.9e-05 ± 2e-05 s⁻¹ for the second.

A6U C10G G62U C67G C71G and G13A U57G are within error of each other in “self-cleavage kobs at 10000 uM GlcN6P” value: 2.87e-05 ± 1.4e-05 s⁻¹ for the first, 4.69e-05 ± 8.8e-06 s⁻¹ for the second.

First: A15G U56G C68G
Second: U30A G44A C68G
The “self-cleavage kobs at 10000 uM GlcN6P” value of the first is higher: 6.13e-05 ± 1.3e-05 s⁻¹ for the first, less than 1e-05 s⁻¹ for the second.

G9U A15U A42C U57G and C8A G41U U46G G63A cannot be ordered by “self-cleavage kobs at 10000 uM GlcN6P” value: less than 1e-05 s⁻¹ for the first, less than 1e-05 s⁻¹ for the second.

Compared with A14G G32A A52G, U54G C58A C71U is 1.9-fold lower in “self-cleavage kobs at 10000 uM GlcN6P” value: 0.000409 ± 0.00011 s⁻¹ for the first, 0.000213 ± 4.7e-05 s⁻¹ for the second.

A12C C61U G66U and G35U G40C A53U U54A cannot be ordered by “self-cleavage kobs at 10000 uM GlcN6P” value: less than 1e-05 s⁻¹ for the first, less than 1e-05 s⁻¹ for the second.

First: A42G C58U
Second: A36C G38U U47C G51C
The “self-cleavage kobs at 10000 uM GlcN6P” value of the first is higher: 9.52e-05 ± 1.4e-05 s⁻¹ for the first, less than 1e-05 s⁻¹ for the second.

G9U G32U G37U and A15G G43A C58A cannot be ordered by “self-cleavage kobs at 10000 uM GlcN6P” value: less than 1e-05 s⁻¹ for the first, less than 1e-05 s⁻¹ for the second.

Going from A39G C58G C67U to U30G U45A C67A, the “self-cleavage kobs at 10000 uM GlcN6P” value rises from 3.44e-05 ± 1.2e-05 s⁻¹ to 0.00242 ± 0.00045 s⁻¹ (70-fold).

First: G40U G43C U65A
Second: G35C C67U
The “self-cleavage kobs at 10000 uM GlcN6P” value of the first is lower: less than 1e-05 s⁻¹ for the first, 0.00429 s⁻¹ for the second.

First: C19A G35C U47C U49G G51U C68U C71U
Second: G13U C58U
The “self-cleavage kobs at 10000 uM GlcN6P” value of the first is lower: less than 1e-05 s⁻¹ for the first, 6.77e-05 ± 6.2e-06 s⁻¹ for the second.

C8G A33U U56A and C11A G41U G43U G44A G51C G63A cannot be ordered by “self-cleavage kobs at 10000 uM GlcN6P” value: less than 1e-05 s⁻¹ for the first, less than 1e-05 s⁻¹ for the second.

Going from U47G A48U U56G C68A to C8G A14G A33U, the “self-cleavage kobs at 10000 uM GlcN6P” value falls from 4.62e-05 ± 1.6e-05 s⁻¹ to less than 1e-05 s⁻¹.

Going from A42U U56C C71U to C10U C16G C61A C71U, the “self-cleavage kobs at 10000 uM GlcN6P” value falls from 5.21e-05 ± 2e-05 s⁻¹ to less than 1e-05 s⁻¹.

A6C U31C G63U C71G and G9U G32C C34G U54G A64U C71A cannot be ordered by “self-cleavage kobs at 10000 uM GlcN6P” value: less than 1e-05 s⁻¹ for the first, less than 1e-05 s⁻¹ for the second.

First: A39G U46G
Second: A12C G41A U46G
The “self-cleavage kobs at 10000 uM GlcN6P” value of the first is 54-fold higher: 0.018 ± 0.0054 s⁻¹ for the first, 0.000334 ± 7.8e-05 s⁻¹ for the second.

G40A C58U C67G C71G and G37U C58G G63U cannot be ordered by “self-cleavage kobs at 10000 uM GlcN6P” value: less than 1e-05 s⁻¹ for the first, less than 1e-05 s⁻¹ for the second.

First: C11U A39G C58G
Second: A12C A15U G40U
The “self-cleavage kobs at 10000 uM GlcN6P” value of the first is 2.5-fold lower: 7.12e-05 ± 1.7e-05 s⁻¹ for the first, 0.00018 ± 4e-05 s⁻¹ for the second.

First: A14G G44C C67U
Second: G35A G37C U47C
The “self-cleavage kobs at 10000 uM GlcN6P” value of the first is higher: 0.00278 ± 0.0013 s⁻¹ for the first, less than 1e-05 s⁻¹ for the second.

First: A36C U69A C70U
Second: A53U C70G C71G
The “self-cleavage kobs at 10000 uM GlcN6P” value of the first is 2.4-fold higher: 6.82e-05 ± 1.5e-05 s⁻¹ for the first, 2.8e-05 ± 1.2e-05 s⁻¹ for the second.

Going from G7A U55A G66A C67U U69G to A39C G44C G60U, the “self-cleavage kobs at 10000 uM GlcN6P” value falls from 0.000476 ± 0.00013 s⁻¹ to less than 1e-05 s⁻¹.

A48U A52C G60A A64C and C11A A33C A42C C50G cannot be ordered by “self-cleavage kobs at 10000 uM GlcN6P” value: less than 1e-05 s⁻¹ for the first, less than 1e-05 s⁻¹ for the second.

First: A12C A15U A52G
Second: C8G G32U G43A C68G
The “self-cleavage kobs at 10000 uM GlcN6P” value of the first is higher: 0.000174 ± 3.6e-05 s⁻¹ for the first, less than 1e-05 s⁻¹ for the second.

Going from U31C U47G C70G to G41C G66C C68A, the “self-cleavage kobs at 10000 uM GlcN6P” value falls from 4.82e-05 ± 1.5e-05 s⁻¹ to less than 1e-05 s⁻¹.

Going from A12U G29C G41A to U31G C67A C71A, the “self-cleavage kobs at 10000 uM GlcN6P” value rises from 0.000129 ± 4.9e-05 s⁻¹ to 0.000258 ± 6.9e-05 s⁻¹ (2-fold).

Compared with G40A A53G C71G, A12U U31C C67G is 17-fold lower in “self-cleavage kobs at 10000 uM GlcN6P” value: 0.00453 ± 0.001 s⁻¹ for the first, 0.000267 ± 5.5e-05 s⁻¹ for the second.

Going from A36U G43U G63C to A14G A15U G32A, the “self-cleavage kobs at 10000 uM GlcN6P” value rises from less than 1e-05 s⁻¹ to 0.00264 ± 0.00069 s⁻¹.

Going from G29U U31G G32C C67A C68G to A14C A23C, the “self-cleavage kobs at 10000 uM GlcN6P” value rises from 5.79e-05 ± 2.8e-05 s⁻¹ to 0.0057 ± 0.0012 s⁻¹ (98-fold).

Compared with A14U A15G G41U, U31A A33C is 5.1-fold lower in “self-cleavage kobs at 10000 uM GlcN6P” value: 0.000237 ± 5.3e-05 s⁻¹ for the first, 4.61e-05 ± 1.8e-05 s⁻¹ for the second.

C8G G9C G13U G37U A64G and A12G A36U A48C A53C G66A C70G cannot be ordered by “self-cleavage kobs at 10000 uM GlcN6P” value: less than 1e-05 s⁻¹ for the first, less than 1e-05 s⁻¹ for the second.

C8A G29C U46A and C34U G40U A42U cannot be ordered by “self-cleavage kobs at 10000 uM GlcN6P” value: less than 1e-05 s⁻¹ for the first, less than 1e-05 s⁻¹ for the second.

First: A39G U56G C68U
Second: G41U A53G C68U
The “self-cleavage kobs at 10000 uM GlcN6P” value of the first is 65-fold higher: 0.00322 ± 0.0012 s⁻¹ for the first, 4.96e-05 ± 1.3e-05 s⁻¹ for the second.

Compared with G35A C50U, C16G G29A G32A is 30-fold higher in “self-cleavage kobs at 10000 uM GlcN6P” value: 4.87e-05 ± 8e-06 s⁻¹ for the first, 0.00144 ± 0.00032 s⁻¹ for the second.

G7A C11G A14C A48G A64G and A12G G51C G60U cannot be ordered by “self-cleavage kobs at 10000 uM GlcN6P” value: less than 1e-05 s⁻¹ for the first, less than 1e-05 s⁻¹ for the second.

Compared with G26U U30G C71U, G13C U31C A39C is 15-fold lower in “self-cleavage kobs at 10000 uM GlcN6P” value: 0.000403 ± 6.4e-05 s⁻¹ for the first, 2.61e-05 ± 1.3e-05 s⁻¹ for the second.

A39U G41C U49A C61U and A52U C58G U65G cannot be ordered by “self-cleavage kobs at 10000 uM GlcN6P” value: less than 1e-05 s⁻¹ for the first, less than 1e-05 s⁻¹ for the second.

G40A G51C C67U and U31C G40C U54C U56A A64U cannot be ordered by “self-cleavage kobs at 10000 uM GlcN6P” value: less than 1e-05 s⁻¹ for the first, less than 1e-05 s⁻¹ for the second.

For G13A C58U, the “self-cleavage kobs at 10000 uM GlcN6P” value was 8.94e-05 ± 8.9e-06 s⁻¹.

Variants of: B1
Experiment: self-cleavage kobs at 2500 uM GlcN6P; higher = faster cleavage; RNA array
Settings: with glucosamine-6-phosphate
How it was run: as §1

Compared with G29U U57A C68G, U47G A48U U56G C68A is 4-fold higher in “self-cleavage kobs at 2500 uM GlcN6P” value: 8.07e-05 ± 2.8e-05 s⁻¹ for the first, 0.000324 ± 0.00012 s⁻¹ for the second.

C10G G40A G60U and C11G G13A C16G G29C G37C A53G cannot be ordered by “self-cleavage kobs at 2500 uM GlcN6P” value: less than 1e-05 s⁻¹ for the first, less than 1e-05 s⁻¹ for the second.

C16G G59U G60C C68G and A14G C34A U55G C70A cannot be ordered by “self-cleavage kobs at 2500 uM GlcN6P” value: less than 1e-05 s⁻¹ for the first, less than 1e-05 s⁻¹ for the second.

With G35A C50U the “self-cleavage kobs at 2500 uM GlcN6P” value was 2.72e-05 ± 1.2e-05 s⁻¹.
